Drawing on paper PMC3634489, this text covers percent of total HC in the sIgA complex and percent of total IgA content as sIgA for one substance.

Assay [1] has as its target 2A1 IgA of the combination HCα1-LCλ-JC (heavy chain α1 without KDEL, λ light chain, co-expressed J chain) (human) (UniProt P01591). The experiment in a line: ELISA; […]) capture antibody, […].
For assay [2] the target is unchanged. As to the kind of experiment: ELISA.
Assay [3] has the same target. The experiment in a line: SEC. (In general: Size exclusion chromatography separates by hydrodynamic size, large species first.)

Chain of UniProt P01591 (P01591 whole entry, looked up): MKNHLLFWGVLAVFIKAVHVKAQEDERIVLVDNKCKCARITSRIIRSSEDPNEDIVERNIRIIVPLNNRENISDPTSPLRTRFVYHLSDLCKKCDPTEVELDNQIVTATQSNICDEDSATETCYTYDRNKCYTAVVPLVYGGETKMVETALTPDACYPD

As for “secretory component with a C-terminal KDEL signal (SCkdel) (from UniProt P01833 19-638) (domain or fragment)”, the percent of total HC in the sIgA complex is above 33% in assay [1] and 21% in assay [2]. The percent of total IgA content as sIgA in assay [3] is 20%.
